Test results reported in paper PMC6166725.

Target: maltose-binding protein fragment MBP198–265 [MBP: P0AEX9]
Experiment: ITC; iTC200, 22 °C; 350 μM MBP198–265 in the cell, 3.5 mM TF^PPD-SBD in the syringe; 20 mM potassium phosphate pH 7.0, 100 mM KCl, 0.05% NaN3

trigger factor tandem domain TF^PPD-SBD (from UniProt P0A850 113-246) (domain or fragment)
Kd: 47 µM
dH: -5.9 kcal/mol
